Measurements taken from PMC3699403.

How the values were obtained:
[1] = molecular target: STM3605t (STM3605 residues 5-107, SeMet-labeled and reductively methylated) (Salmonella enterica serovar Typhimurium LT2); assay: crystal structure
[2] = molecular target: STM3605f, full-length Se-labeled non-methylated variant (Salmonella enterica serovar Typhimurium LT2); assay: crystal structure

| Substance | stoichiometry N [1] | stoichiometry N [2] |
| --- | --- | --- |
| STM3605t (STM3605 residues 5-107, SeMet-labeled and reductively methylated) (domain or fragment) | 2 |  |
| STM3605f, full-length Se-labeled non-methylated variant (natural protein) |  | 2 |
